According to article PMC2592702:

Target: recombinant mouse PrP, amino acids 23–231 (rmPrP_(23-231)) (mouse)
Assay: ELISA

Question: Which stoichiometry N does the source give for POM2 monoclonal antibody (IgG) here?
Answer: The stoichiometry N was > 2.
